The values that follow come from WO2024071112A1 (dated 2024).

The test deals with T1, human plasminogen (human, UniProt P00747 20-810, limits assumed).
T1 construct: also called Plg
The experiment in a line: ELISA, plate-coated human plasminogen, His-tagged VK and VH peptides bridged and detected by rabbit anti-His tag IgG and HRP anti-rabbit IgG, A450. On the technique in general: In an ELISA, binding on a coated surface is turned into a signal by an enzyme label.

T1 sequence (P00747 20-810 limits assumed): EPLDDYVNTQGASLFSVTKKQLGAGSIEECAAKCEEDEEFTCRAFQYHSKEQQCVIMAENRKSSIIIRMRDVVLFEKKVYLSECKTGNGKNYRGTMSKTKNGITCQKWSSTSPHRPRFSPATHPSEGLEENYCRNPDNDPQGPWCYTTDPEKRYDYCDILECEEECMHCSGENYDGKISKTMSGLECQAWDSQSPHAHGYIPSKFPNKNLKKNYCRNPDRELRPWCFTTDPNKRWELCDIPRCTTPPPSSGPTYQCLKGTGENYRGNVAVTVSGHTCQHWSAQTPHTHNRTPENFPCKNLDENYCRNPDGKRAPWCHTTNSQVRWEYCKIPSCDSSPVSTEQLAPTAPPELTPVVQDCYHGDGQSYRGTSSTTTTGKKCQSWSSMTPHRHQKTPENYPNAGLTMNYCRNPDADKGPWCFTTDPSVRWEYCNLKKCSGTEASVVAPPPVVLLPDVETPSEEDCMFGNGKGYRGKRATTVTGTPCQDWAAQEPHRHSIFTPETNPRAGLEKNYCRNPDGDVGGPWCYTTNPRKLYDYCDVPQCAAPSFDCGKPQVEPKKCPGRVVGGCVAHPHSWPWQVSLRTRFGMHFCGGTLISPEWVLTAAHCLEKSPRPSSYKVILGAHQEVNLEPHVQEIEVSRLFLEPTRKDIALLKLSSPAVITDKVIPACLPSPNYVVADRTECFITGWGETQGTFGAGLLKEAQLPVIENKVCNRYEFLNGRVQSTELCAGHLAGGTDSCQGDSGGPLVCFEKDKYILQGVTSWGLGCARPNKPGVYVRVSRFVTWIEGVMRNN

B1: VKc4+VHc1 (His-tagged VKc4 domain peptide combined with His-tagged VHc1 domain peptide) (other)
VL: RSDILMTQSPSSMSVSLGDTVSITCHASQGISSNIGWLQQKPGKSFKGLIYHGTNLEDGVPSRFSGSGSGADYSLTITSLESEDFADYYCVQYAQFPWTFGGGTKLEIKDIPWQGLNDIFEAQKIEWHGSHHHHHH
VH: RSEVQLQQSGAELVKPGASVKLSCTASGFNIKDYYMHWVKQRTEQGLEWIGRIDPEDGETKYAPKFQGKATITADTSSNTAYLQLSSLTSEDTAVYYCAPLLGREDYWGQGTTLTVSSDIPWQGLNDIFEAQKIEWHGSHHHHHH
notes: Two separate His-tagged mouse variable domain peptides made in E. coli (crude lysis supernatant), not covalently linked; in the ELISA they are bridged by polyclonal rabbit anti-His tag IgG; also called Kc4Hc1
As for B1, the binding result is on record as “binds”.
